Measurements taken from US20240132578A1 (published 2024).

How the values were obtained:
[1] = molecular target: HIV-1 IAVI_C22 envelope protein (Env) on pseudotyped virus (HIV-1 strain IAVI C22); experiment: cell-based or functional assay
[2] = molecular target: HIV-1 92BR020 envelope protein (Env) on pseudotyped virus (HIV-1 strain 92BR020); experiment: cell-based or functional assay
[3] = molecular target: HIV-1 JR-CSF envelope protein (Env) on pseudotyped virus (HIV-1 isolate JR-CSF, UniProt P20871 32-848); experiment: cell-based or functional assay
[4] = molecular target: aMLV envelope on pseudotyped virus (negative control) (aMLV); experiment: cell-based or functional assay
[5] = molecular target: HIV-1 93IN905 envelope protein (Env) on pseudotyped virus (HIV-1 strain 93IN905); experiment: cell-based or functional assay
[6] = molecular target: HIV-1 NL43 envelope protein (Env) on pseudotyped virus (HIV-1 strain NL43); experiment: cell-based or functional assay
[7] = molecular target: HIV-1 92TH021 envelope protein (Env) on pseudotyped virus (HIV-1 strain 92TH021); experiment: cell-based or functional assay
[8] = molecular target: HIV-1 SF162 envelope protein (Env) on pseudotyped virus (HIV-1 isolate SF162, UniProt P19550 32-847); experiment: cell-based or functional assay
[9] = molecular target: HIV-1 94UG103 envelope protein (Env) on pseudotyped virus (HIV-1 strain 94UG103); experiment: cell-based or functional assay
[10] = molecular target: T1, recombinant, monomeric gp120 JR-CSF (HIV-1, UniProt P20871 32-503); experiment: screening ELISA on recombinant gp120 (column mAb Specificity)
T1 construct: domain: gp120; also called JR-CSF gp120

[11] = molecular target: T2, recombinant gp41 HxB2 (HIV-1, UniProt P04578 541-682); experiment: screening ELISA on recombinant gp41 (column mAb Specificity)
T2 construct: domain: gp41

[12] = molecular target: HIV-1 92BR020 Env (clade B pseudovirus) (HIV-1); experiment: cell-based or functional assay
[13] = molecular target: HIV-1 92UG024 Env (clade D pseudovirus) (HIV-1); experiment: cell-based or functional assay
[14] = molecular target: HIV-1 APV-17 Env (clade B pseudovirus) (HIV-1); experiment: cell-based or functional assay
[15] = molecular target: aMLV envelope (negative control pseudovirus); experiment: cell-based or functional assay
[16] = molecular target: HIV-1 IAVI-C18 Env (clade C pseudovirus) (HIV-1); experiment: cell-based or functional assay
[17] = molecular target: HIV-1 93IN905 Env (clade C pseudovirus) (HIV-1); experiment: cell-based or functional assay
[18] = molecular target: HIV-1 IAVI-C22 Env (clade C pseudovirus) (HIV-1); experiment: cell-based or functional assay
[19] = molecular target: HIV-1 92RW020 Env (clade A pseudovirus) (HIV-1); experiment: cell-based or functional assay
[20] = molecular target: HIV-1 IAVI-C3 Env (clade C pseudovirus) (HIV-1); experiment: cell-based or functional assay
[21] = molecular target: HIV-1 APV-6 Env (clade B pseudovirus) (HIV-1); experiment: cell-based or functional assay
[22] = molecular target: HIV-1 94UG103 Env (clade A pseudovirus) (HIV-1); experiment: cell-based or functional assay
[23] = molecular target: HIV-1 APV-13 Env (clade B pseudovirus) (HIV-1); experiment: cell-based or functional assay
[24] = molecular target: HIV-1 92TH021 Env (CRF01_AE pseudovirus) (HIV-1); experiment: cell-based or functional assay
[25] = molecular target: HIV-1 93UG077 Env (clade A pseudovirus) (HIV-1); experiment: cell-based or functional assay
[26] = molecular target: HIV-1 92UG005 Env (clade D pseudovirus) (HIV-1); experiment: cell-based or functional assay
[27] = molecular target: HIV-1 CMU02 Env (CRF01_AE pseudovirus) (HIV-1); experiment: cell-based or functional assay
[28] = molecular target: HIV-1 JRCSF Env (clade B pseudovirus) (HIV-1, UniProt P20871 32-848); experiment: cell-based or functional assay
[29] = molecular target: T3, recombinant, monomeric gp120JR-CSF (HIV-1 isolate JR-CSF, UniProt P20871 32-503); experiment: ELISA, initial screen of B cell culture supernatants
T3 construct: domain: gp120; also called JR-CSF gp120; JR-CSFgp120

[30] = molecular target: T4, recombinant gp41HxB2 (HIV-1 clone HxB2, UniProt P04578 541-682); experiment: as above
T4 construct: domain: gp41

[31] = molecular target: T5, HIV-1 YU2 gp160 expressed on the cell surface (HIV-1 strain YU2, UniProt P35961 32-843); experiment: flow cytometry on transfected cells (FIG. 8)
T5 construct: whole, on cells

[32] = molecular target: T6, V1/V2 deleted HIV-1JR-CSF Env expressed on transfected cells (HIV-1 strain JR-CSF, UniProt P20871 32-848); experiment: flow cytometry on transfected 293T cells (FIG. 13E)
T6 construct: whole, on cells; also called variable loop deleted HIV-1JR-CSF variant (V1/V2)

[33] = molecular target: T7, V3 deleted HIV-1JR-CSF Env expressed on transfected cells (HIV-1 strain JR-CSF, UniProt P20871 32-848); experiment: as above
T7 construct: whole, on cells; also called variable loop deleted HIV-1JR-CSF variant (V3)

Binder | binding result [11] | IC50 (µg/mL), pseudovirus neutralization [12] | IC50 (µg/mL), pseudovirus neutralization [14] | IC50 (µg/mL), pseudovirus neutralization [15] | IC50 (µg/mL), pseudovirus neutralization [16] | IC50 (µg/mL), pseudovirus neutralization [19] | IC50 (µg/mL), pseudovirus neutralization [20] | IC50 (µg/mL), pseudovirus neutralization [21] | IC50 (µg/mL), pseudovirus neutralization [22] | IC50 (µg/mL), pseudovirus neutralization [23] | IC50 (µg/mL), pseudovirus neutralization [25] | IC50 (µg/mL), pseudovirus neutralization [26] | IC50 (µg/mL), pseudovirus neutralization [27] | IC50 (µg/mL), pseudovirus neutralization [28] | binding result [30] | also measured
1460_G14 (PGG14) (antibody, human IgG1, kappa, V domains shown) VH: QVLLVQSGTEVKKPGSSVKVSCQASGGAFSSYAFSWVRQAPGQGLEWMGMITPVFGETKYAPRFQGRLTLTAEESLSTTYMELRSLTSDDTAFYYCTRDRRVVPMATDNWLDPWGQGTLVTVSS VL: DIQLTQSPSSLSASVGDRVTVTCRASQTIHTYLNWYQQIPGKAPKLLIYGASTLQSGVPSRFSGSGSGTDFTLTINSLQPEDFATYYCQQSYSTPRTFGQGTRLDIKR |  |  |  |  |  |  |  |  |  |  |  |  |  |  |  | IC50, Neutralizing Antibody Assay, Virus/Ab Incubation 1 hour [1]: > 50 µg/mL; IC50, Neutralizing Antibody Assay, Virus/Ab Incubation 18 hour [1]: > 50 µg/mL; IC50, Neutralizing Antibody Assay, Virus/Ab Incubation 1 hour [2]: > 50 µg/mL; IC50, Neutralizing Antibody Assay, Virus/Ab Incubation 18 hour [2]: > 50 µg/mL; IC50, Neutralizing Antibody Assay, Virus/Ab Incubation 1 hour [3]: > 50 µg/mL; IC50, Neutralizing Antibody Assay, Virus/Ab Incubation 18 hour [3]: > 50 µg/mL; IC50, Neutralizing Antibody Assay, Virus/Ab Incubation 1 hour [4]: > 50 µg/mL; IC50, Neutralizing Antibody Assay, Virus/Ab Incubation 18 hour [4]: > 50 µg/mL; IC50, Neutralizing Antibody Assay, Virus/Ab Incubation 1 hour [5]: > 50 µg/mL; IC50, Neutralizing Antibody Assay, Virus/Ab Incubation 18 hour [5]: 3.17 µg/mL; IC50, Neutralizing Antibody Assay, Virus/Ab Incubation 1 hour [6]: 0.17 µg/mL; IC50, Neutralizing Antibody Assay, Virus/Ab Incubation 18 hour [6]: 0.05 µg/mL; IC50, Neutralizing Antibody Assay, Virus/Ab Incubation 1 hour [7]: > 50 µg/mL; IC50, Neutralizing Antibody Assay, Virus/Ab Incubation 18 hour [7]: > 50 µg/mL; IC50, Neutralizing Antibody Assay, Virus/Ab Incubation 1 hour [8]: 0.179 µg/mL; IC50, Neutralizing Antibody Assay, Virus/Ab Incubation 18 hour [8]: 0.0573 µg/mL; IC50, Neutralizing Antibody Assay, Virus/Ab Incubation 1 hour [9]: > 50 µg/mL; IC50, Neutralizing Antibody Assay, Virus/Ab Incubation 18 hour [9]: > 50 µg/mL
1443_C16 (PG16) (TCN-116) (antibody, V domains shown) VH: QEQLVESGGGVVQPGGSLRLSCLASGFTFHKYGMHWVRQAPGKGLEWVALISDDGMRKYHSDSMWGRVTISRDNSKNTLYLQFSSLKVEDTAMFFCAREAGGPIWHDDVKYYDFNDGYYNYHYMDVWGKGTTVTVSS VL: QSALTQPASVSGSPGQTITISCNGTSSDVGGFDSVSWYQQSPGKAPKVMVFDVSHRPSGISNRFSGSKSGNTASLTISGLHIEDEGDYFCSSLTDRSHRIFGGGTKVTVLG [1443_C16 (PG16) (TCN-116), listing 1 of 2 here] | no binding | > 50 µg/mL | > 50 µg/mL | > 50 µg/mL | 0.007 µg/mL | 0.004 µg/mL | 14.8 µg/mL | 0.08 µg/mL | 0.008 µg/mL | > 50 µg/mL | > 50 µg/mL | > 50 µg/mL | > 50 µg/mL | < 0.0025 µg/mL |  | binding result [10]: no binding; IC50 (µg/mL), pseudovirus neutralization [13]: > 50 µg/mL; IC50 (µg/mL), pseudovirus neutralization [17]: 0.1 µg/mL; IC50 (µg/mL), pseudovirus neutralization [18]: 0.069 µg/mL; IC50 (µg/mL), pseudovirus neutralization [24]: 0.13 µg/mL
1443_C16 (PG16) (TCN-116) (antibody, V domains shown) VH: QEQLVESGGGVVQPGGSLRLSCLASGFTFHKYGMHWVRQAPGKGLEWVALISDDGMRKYHSDSMWGRVTISRDNSKNTLYLQFSSLKVEDTAMFFCAREAGGPIWHDDVKYYDFNDGYYNYHYMDVWGKGTTVTVSS VL: QSALTQPASVSGSPGQTITISCNGTSSDVGGFDSVSWYQQSPGKAPKVMVFDVSHRPSGISNRFSGSKSGNTASLTISGLHIEDEGDYFCSSLTDRSHRIFGGGTKVTVLG [1443_C16 (PG16) (TCN-116), listing 2 of 2 here] |  |  |  |  |  |  |  |  |  |  |  |  |  |  | no binding | binding result [29]: no binding; binding result [31]: binds; binding result [32]: no binding; binding result [33]: no binding
1496_C09 (PG9) (TCN-109) (antibody, V domains shown) VH: QRLVESGGGVVQPGSSLRLSCAASGFDFSRQGMHWVRQAPGQGLEWVAFIKYDGSEKYHADSVWGRLSISRDNSKDTLYLQMNSLRVEDTATYFCVREAGGPDYRNGYNYYDFYDGYYNYHYMDVWGKGTTVTVSS VL: QSALTQPASVSGSPGQSITISCNGTSNDVGGYESVSWYQQHPGKAPKVVIYDVSKRPSGVSNRFSGSKSGNTASLTISGLQAEDEGDYYCKSLTSTRRRVFGTGTKLTVLG [1496_C09 (PG9) (TCN-109), listing 1 of 2 here] | no binding | > 50 µg/mL | 26.4 µg/mL | > 50 µg/mL | 0.05 µg/mL | 0.06 µg/mL | 12.9 µg/mL | 0.09 µg/mL | 0.17 µg/mL | > 50 µg/mL | > 50 µg/mL | > 50 µg/mL | > 50 µg/mL | < 0.0025 µg/mL |  | 
1496_C09 (PG9) (TCN-109) (antibody, V domains shown) VH: QRLVESGGGVVQPGSSLRLSCAASGFDFSRQGMHWVRQAPGQGLEWVAFIKYDGSEKYHADSVWGRLSISRDNSKDTLYLQMNSLRVEDTATYFCVREAGGPDYRNGYNYYDFYDGYYNYHYMDVWGKGTTVTVSS VL: QSALTQPASVSGSPGQSITISCNGTSNDVGGYESVSWYQQHPGKAPKVVIYDVSKRPSGVSNRFSGSKSGNTASLTISGLQAEDEGDYYCKSLTSTRRRVFGTGTKLTVLG [1496_C09 (PG9) (TCN-109), listing 2 of 2 here] |  |  |  |  |  |  |  |  |  |  |  |  |  |  | no binding | 
